We go through three molecules from article PMC10397247.

Like-named read-outs stand apart in the source and are kept apart here.

The target of assay [1] is T1, 4H3718-AA.
T1 chain: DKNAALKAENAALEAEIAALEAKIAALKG
Nature of the assay: two-hybrid library CCmax.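 Note: natural log of median RNA to DNA barcode read ratio; higher means stronger binding.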

Assay [2] has as its target T2, 4H384-AA.
T2 chain: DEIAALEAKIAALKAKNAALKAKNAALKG
The assay is described as follows: two-hybrid library CCmax.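 Note: natural log of median RNA to DNA barcode read ratio; higher means stronger binding.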 The note with it: mean of both orientations.

Assay [3] has as its target T3, 4H3865-AA.
T3 chain: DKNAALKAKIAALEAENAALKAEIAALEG
Nature of the assay: two-hybrid library CCmax.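 Note: natural log of median RNA to DNA barcode read ratio; higher means stronger binding.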 The note with it: mean of both orientations.

Assay [4] addresses T4, 4H697-AA.
T4 chain: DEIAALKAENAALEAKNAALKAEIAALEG
The assay is described as follows: two-hybrid library CCmax.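 Note: natural log of median RNA to DNA barcode read ratio; higher means stronger binding.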 The note with it: mean of both orientations.

Assay [5] concerns the target T5, 4H982-AA.
T5 chain: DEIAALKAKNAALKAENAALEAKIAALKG
The assay is described as follows: two-hybrid library CCmax.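 Note: natural log of median RNA to DNA barcode read ratio; higher means stronger binding.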 The conditions noted are these: mean of both orientations.

In assay [6] the target is T6, Q3-AA.
T6 chain: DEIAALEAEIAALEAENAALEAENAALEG
Nature of the assay: two-hybrid library CCmax.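 Note: natural log of median RNA to DNA barcode read ratio; higher means stronger binding.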 The conditions noted are these: mean of both orientations.

In assay [7] the target is T7, Q7-AA.
T7 chain: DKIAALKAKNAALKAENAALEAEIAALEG
The assay is described as follows: two-hybrid library CCmax. The note with it: mean of both orientations.

Assay [8] concerns the target T8, Q8-AA.
T8 chain: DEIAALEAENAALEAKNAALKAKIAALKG
Nature of the assay: two-hybrid library CCmax. The note with it: mean of both orientations.

For assay [9], the target named is T9, 4H3627-AA.
T9 chain: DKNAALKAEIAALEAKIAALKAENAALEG
Nature of the assay: two-hybrid library CCmax.

In assay [10] the target is T10, 4H3655-AA.
T10 chain: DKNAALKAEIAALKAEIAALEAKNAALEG
Nature of the assay: two-hybrid library CCmax. The conditions noted are these: mean of both orientations.

In assay [11] the target is T11, 4H3844-AA.
T11 chain: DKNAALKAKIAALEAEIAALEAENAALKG
Nature of the assay: two-hybrid library CCmax. The conditions noted are these: mean of both orientations.

For assay [12], the target named is T12, 4H3921-AA.
T12 chain: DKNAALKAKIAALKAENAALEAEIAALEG
Nature of the assay: two-hybrid library CCmax. The conditions noted are these: mean of both orientations.

Assay [13] addresses T13, 4H429-AA.
T13 chain: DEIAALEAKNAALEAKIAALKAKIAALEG
The assay is described as follows: two-hybrid library CCmax. The conditions noted are these: mean of both orientations.

For assay [14], the target named is T14, 4H454-AA.
T14 chain: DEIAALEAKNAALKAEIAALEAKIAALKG
The assay is described as follows: two-hybrid library CCmax. The note with it: mean of both orientations.

For assay [15], the target named is T15, 4H48-AA.
T15 chain: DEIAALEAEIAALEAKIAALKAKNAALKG
Nature of the assay: two-hybrid library CCmax. The conditions noted are these: mean of both orientations.

In assay [16] the target is T16, 4H566-AA.
T16 chain: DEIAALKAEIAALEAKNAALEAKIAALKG
Nature of the assay: two-hybrid library CCmax. The note with it: mean of both orientations.

Assay [17] concerns the target T17, 4H605-AA.
T17 chain: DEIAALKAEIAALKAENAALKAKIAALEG
The assay is described as follows: two-hybrid library CCmax. The note with it: mean of both orientations.

Assay [18] has as its target T18, 4H678-AA.
T18 chain: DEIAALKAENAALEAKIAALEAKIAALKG
The assay is described as follows: two-hybrid library CCmax. The conditions noted are these: mean of both orientations.

Assay [19] concerns the target T19, 4H717-AA.
T19 chain: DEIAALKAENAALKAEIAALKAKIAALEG
The assay is described as follows: two-hybrid library CCmax. The conditions noted are these: mean of both orientations.

Assay [20] concerns the target T20, 4H780-AA.
T20 chain: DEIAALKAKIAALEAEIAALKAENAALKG
Nature of the assay: two-hybrid library CCmax. The conditions noted are these: mean of both orientations.

Assay [21] deals with T21, 4H794-AA.
T21 chain: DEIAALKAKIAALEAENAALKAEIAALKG
Nature of the assay: two-hybrid library CCmax. The conditions noted are these: mean of both orientations.

In assay [22] the target is T22, 4H881-AA.
T22 chain: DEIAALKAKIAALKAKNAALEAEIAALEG
Nature of the assay: two-hybrid library CCmax. The conditions noted are these: mean of both orientations.

Assay [23] concerns the target T23, 4H906-AA.
T23 chain: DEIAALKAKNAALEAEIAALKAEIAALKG
The assay is described as follows: two-hybrid library CCmax. The conditions noted are these: mean of both orientations.

In assay [24] the target is T24, 4H993-AA.
T24 chain: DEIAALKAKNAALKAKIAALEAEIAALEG
Nature of the assay: two-hybrid library CCmax. The note with it: mean of both orientations.

For assay [25], the target named is T25, 4H2233-bH.
T25 chain: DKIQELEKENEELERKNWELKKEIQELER
The assay is described as follows: two-hybrid library CCNG1.

In assay [26] the target is T26, 4H2253-bH.
T26 chain: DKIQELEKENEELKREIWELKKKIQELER
The assay is described as follows: two-hybrid library CCNG1.

Assay [27] deals with T27, 4H235-bH.
T27 chain: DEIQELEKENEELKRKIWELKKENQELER
Nature of the assay: two-hybrid library CCNG1.

The target in assay [28] is T28, 4H2444-bH.
T28 chain: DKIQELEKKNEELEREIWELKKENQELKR
The assay is described as follows: two-hybrid library CCNG1.

The target of assay [29] is T29, 4H2518-bH.
T29 chain: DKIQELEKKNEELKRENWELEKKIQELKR
Nature of the assay: two-hybrid library CCNG1.

Assay [30] deals with T30, 4H2585-bH.
T30 chain: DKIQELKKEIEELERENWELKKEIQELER
Nature of the assay: two-hybrid library CCNG1.

The target of assay [31] is T31, 4H264-bH.
T31 chain: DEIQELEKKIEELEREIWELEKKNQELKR
The assay is described as follows: two-hybrid library CCNG1.

For assay [32], the target named is T32, 4H2760-bH.
T32 chain: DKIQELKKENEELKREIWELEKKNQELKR
Nature of the assay: two-hybrid library CCNG1.

Assay [33] has as its target T33, 4H2859-bH.
T33 chain: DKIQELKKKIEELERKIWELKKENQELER
Nature of the assay: two-hybrid library CCNG1.

In assay [34] the target is T34, 4H2931-bH.
T34 chain: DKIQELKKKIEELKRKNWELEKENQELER
Nature of the assay: two-hybrid library CCNG1.

Assay [35] concerns the target T35, 4H3041-bH.
T35 chain: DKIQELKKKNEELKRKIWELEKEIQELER
The assay is described as follows: two-hybrid library CCNG1.

In assay [36] the target is T36, 4H319-bH.
T36 chain: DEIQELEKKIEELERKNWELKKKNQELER
The assay is described as follows: two-hybrid library CCNG1.

The target of assay [37] is T37, 4H3297-bH.
T37 chain: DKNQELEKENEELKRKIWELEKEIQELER
Nature of the assay: two-hybrid library CCNG1.

Assay [38] has as its target T38, 4H3364-bH.
T38 chain: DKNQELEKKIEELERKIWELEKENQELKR
The assay is described as follows: two-hybrid library CCNG1.

In assay [39] the target is T39, 4H3381-bH.
T39 chain: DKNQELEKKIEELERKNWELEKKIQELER
The assay is described as follows: two-hybrid library CCNG1.

Assay [40] has as its target T40, 4H349-bH.
T40 chain: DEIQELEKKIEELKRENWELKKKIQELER
Nature of the assay: two-hybrid library CCNG1.

In assay [41] the target is T41, 4H56-bH.
T41 chain: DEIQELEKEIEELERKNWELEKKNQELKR
Nature of the assay: two-hybrid library CCNG1.

Assay [42] has as its target T42, 4H730-bH.
T42 chain: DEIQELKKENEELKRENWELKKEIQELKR
The assay is described as follows: two-hybrid library CCNG1.

For assay [43], the target named is T43, 4H796-bH.
T43 chain: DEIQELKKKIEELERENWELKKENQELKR
The assay is described as follows: two-hybrid library CCNG1.

The target in assay [44] is T44, 4H932-bH.
T44 chain: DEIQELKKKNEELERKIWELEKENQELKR
Nature of the assay: two-hybrid library CCNG1.

For assay [45], the target named is T45, 4H949-bH.
T45 chain: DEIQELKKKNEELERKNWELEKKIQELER
The assay is described as follows: two-hybrid library CCNG1.

The target of assay [46] is T46, O5.
T46 chain: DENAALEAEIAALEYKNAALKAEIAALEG
Nature of the assay: two-hybrid library CCNG1.

With DKNAALKAENAALEAEIAALEAKIAALKG [4H3718-AA], the interaction score was -0.586 in [1]; 0.145 in [2]; -1.49 in assay [3]; -0.465 in assay [4]; -1.15 in assay [5]; -1.46 in assay [6]. For the same molecule, the figures for the interaction score in assay [7] and in assay [8] were -0.973 and 1.05, respectively.

For the molecule DKNAALKAEIAALEAKIAALKAENAALEG [4H3627-AA], the interaction score was 0.53 in assay [9]; -0.0982 in assay [10]; -0.468 in assay [1] (mean of both orientations); 1.03 in assay [11]; -1.63 in assay [12]; -1.09 in [13]. Further, the interaction score is 0.554 in [14]; -0.478 in assay [15]; -0.771 in assay [16]; -1.4 in assay [17]; -1.31 in [18]; -1.79 in [19]. In addition, the interaction score in assay [20] was -1; in [21] it was -1.93; in [22] it was -1.04; in [23] it was -1.34; in assay [24], -1.08; in [6], -1.24. Moreover, the interaction score in assay [7] is -1.97; in assay [8] it was -0.702.

As to DKIQELEKENEELERKNWELKKEIQELER [4H2233-bH], the interaction score in [25] is 0.18; in [26], -0.0513; in assay [27] it was -0.93; in assay [28], -0.446; in assay [29] it was 1.4; in assay [30], -0.529. The interaction score is -0.0896 in assay [31]; -0.804 in assay [32]; -0.442 in assay [33]; -0.862 in assay [34]; -0.641 in assay [35]; -0.931 in assay [36]. For the same molecule, the interaction score in assay [37] is -0.069; in [38], -0.899; in [39], -0.723; in assay [40], 0.0715; in assay [41], -1.28; in assay [42] it was -0.961. In addition, the interaction score is -0.815 in [43], -1.01 in assay [44], -0.96 in [45] and -1.37 in assay [46].
